The values that follow come from US20260028403A1 (Zymeworks, published 2026).

For test [1], the target named is T1, Recombinant human/cynomolgus/rhesus macaque CD28 mouse IgG2a Fc fusion protein (Acro Biosystems) (human/cynomolgus/rhesus macaque, UniProt P10747 19-152).
T1 construct: bought; also called huCD28
Nature of the test: SPR, in-format anti-CD28 variants, huCD28.

Test [2] addresses T2, CD28 on primary human T cells (human, UniProt P10747 19-220). Nature of the test: cell-based or functional assay.
The target of test [3] is T2, CD28 on primary human T cells. Nature of the test: cell-based or functional assay. This is another data set of the same source.
Test [4] addresses T3, Recombinant human CD3 epsilon/delta heterodimer, his tag protein (Acro Biosystems) (human, UniProt P07766 23-126; P04234 22-105).
T3 construct: bought
In words: SPR Biacore T200, CD3 e/d-his on CM5, construct injected, 1:1 model.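 Also: measured at 25 °C in HEPES-buffered saline with EDTA and Tween 20 at pH 7.4, values are means of three independent runs.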

In test [5] the target is T1, Recombinant human/cynomolgus/rhesus …. In words: SPR Biacore T200, CD28-mIgG2a Fc on CM5, construct injected, 1:1 model.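 Also: fc fusion captured by amine coupling, run at 25 °C in HEPES buffer pH 7.4, association 140-500 s then dissociation 600-1200 s, values averaged over three independent runs.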

B1: v37683 (trispecific antibody, human IgG1, kappa, L234A L235A)
heavy 1: not shown
heavy 2: QVQLVESGGGLVQPGGSLRLSCSVSGIDLSSNPMIWVRQAPGKGLQYIGIIDTDGSTYYADWAKGRFTISKDSTTVYLQINSPRAEDTAVYYCARRLHGSSNGYYDDLWGQGTLVTVSSGGGGSGGGGSGGGGSGGGGSDGQMTQSPSSVSASVGDRVTITCQASQSIYSYLSWYQQKPGQRPKLLIYKASTLASGVPSRFSGSGSGTDFTLTISSVQPEDFATYYCQQGYTVTNVDKNTFGGGTKVEIKAAEPKSSDKTHTCPPCPAPEAAGGPSVFLFPPKPKDTLMISRTPEVTCVVVSVSHEDPEVKFNWYVDGVEVHNAKTKPREEQYNSTYRVVSVLTVLHQDWLNGKEYKCKVSNKALPAPIEKTISKAKGQPREPQVYVLPPSRDELTKNQVSLLCLVKGFYPSDIAVEWESNGQPENNYLTWPPVLDSDGSFFLYSKLTVDKSRWQQGNVFSCSVMHEALHNHYTQKSLSLSPG
light: DIQMTQSPSSLSASVGDRVTITCRASESVEYYVTSLMQWYQQKPGKAPKLLIYAASNVDSGVPSRFSGSGSGTDFTLTISSLQPEDIATYYCQQSRKVPFTFGGGTKVEIKRTVAAPSVFIFPPSDEQLKSGTASVVCLLNNFYPREAKVQWKVDNALQSGNSQESVTEQDSKDSTYSLSSTLTLSKADYEKHKVYACEVTHQGLSSPVTKSFNRGEC
notes: also called v37638 format, CD28 VH P1058A
With B1, in test [1], the “Fold-change from WT” value turned out to be 2.2 fold, the Kd turned out to be 48.6 nM, the dissociation rate constant (koff) worked out at 0.00466 s⁻¹ and the on-rate constant (kon) amounted to 95800 M⁻¹ s⁻¹. For the same molecule, in test [2], the “IC50, T cell-dependent cytotoxicity on SNU 601” value (from here on “IC50 … on SNU 601”) turned out to be 0.25 pM and the “Maximum Killing (%), SNU 601” value was 88.6%. Also, in test [3], the “IL-2 maximum cytokine, T cells alone” value turned out to be 82.9 pg/mL; the “IL-2 maximum cytokine, T cells with SNU 601 cells” value stood at 4030 pg/mL; the “TNFa maximum cytokine, T cells alone” value came out at 25 pg/mL; the “TNFa maximum cytokine, T cells with SNU 601 cells” value turned out to be 513 pg/mL.

B2: v37641 (trispecific antibody, human IgG1, kappa, L234A L235A)
heavy 1: QVQLVESGGGLVQPGGSLRLSCSVSGIDLSSNPMIWVRQAPGKGLQYIGIIDTDGSTYYADWAKGRFTISKDSTTVYLQINSPRAEDTAVYYCARRLHGSSNGYYDDLWGQGTLVTVSSGGGGSGGGGSGGGGSGGGGSDGQMTQSPSSVSASVGDRVTITCQASQSIYSYLSWYQQKPGQRPKLLIYKASTLASGVPSRFSGSGSGTDFTLTISSVQPEDFATYYCQQGYTVTNVDKNTFGGGTKVEIKGGGGSGQVQLQESGPGLVKPSETLSLTCAVSGFSLTSYGVHWIRQPPGKGLEWLGVIWPGGGTNFNSALMSRLTISEDTSKNQVSLKLSSVTAADTAVYYCARDRAYGNYLYAMDYWGQGTLVTVSSASTKGPSVFPLAPSSKSTSGGTAALGCLVKDYFPEPVTVSWNSGALTSGVHTFPAVLQSSGLYSLSSVVTVPSSSLGTQTYICNVNHKPSNTKVDKKVEPKSCDKTHTCPPCPAPEAAGGPSVFLFPPKPKDTLMISRTPEVTCVVVSVSHEDPEVKFNWYVDGVEVHNAKTKPREEQYNSTYRVVSVLTVLHQDWLNGKEYKCKVSNKALPAPIEKTISKAKGQPREPQVYVYPPSRDELTKNQVSLTCLVKGFYPSDIAVEWESNGQPENNYKTTPPVLDSDGSFALVSKLTVDKSRWQQGNVFSCSVMHEALHNHYTQKSLSLSPGGGGGSGNFMLTQPHSVSESPGKTVTISCKRNTGNIGSNYVNWYQQHEGSSPTTIIYRNDKRPDGVSDRFSGSIDRSSKSASLTISNLKTEDEADYFCQSYSSGFIFGGGTKLTVLGGGGSGGGGSGGGGSGGGGSEVQLVESGGGLVQPGGSLRLSCAASGVTFNYYGMSWIRQAPGKGLEWVASITSSGGRIYYPDSVKGRFTISRENTQKTLYLQMNSLRAEDTAVYYCTLDGRDGWVAYWGQGTLVTVSS
heavy 2: EPKSSDKTHTCPPCPAPEAAGGPSVFLFPPKPKDTLMISRTPEVTCVVVSVSHEDPEVKFNWYVDGVEVHNAKTKPREEQYNSTYRVVSVLTVLHQDWLNGKEYKCKVSNKALPAPIEKTISKAKGQPREPQVYVLPPSRDELTKNQVSLLCLVKGFYPSDIAVEWESNGQPENNYLTWPPVLDSDGSFFLYSKLTVDKSRWQQGNVFSCSVMHEALHNHYTQKSLSLSPG
light: DIQMTQSPSSLSASVGDRVTITCRASESVEYYVTSLMQWYQQKPGKAPKLLIYAASNVDSGVPSRFSGSGSGTDFTLTISSLQPEDIATYYCQQSRKVPFTFGGGTKVEIKRTVAAPSVFIFPPSDEQLKSGTASVVCLLNNFYPREAKVQWKVDNALQSGNSQESVTEQDSKDSTYSLSSTLTLSKADYEKHKVYACEVTHQGLSSPVTKSFNRGEC
notes: second heavy chain is Fc only; Het Fc, FcKO; also called Cldn18.2xCD28xCD3 trispecific
With B2, in test [4], the Kd is 225 nM, the koff was found to be 0.0134 s⁻¹ and the kon was 60800 M⁻¹ s⁻¹. Besides, in test [5], the Kd was found to be 31.8 nM, the koff turned out to be 0.00206 s⁻¹ and the on-rate (kon) stood at 66500 M⁻¹ s⁻¹.

B3: v37685 (trispecific antibody, human IgG1, kappa, L234A L235A)
heavy 1: not shown
heavy 2: QVQLVESGGGLVQPGGSLRLSCSVSGIDLSSNPMIWVRQAPGKGLQYIGIIDTDGSTYYADWAKGRFTISKDSTTVYLQINSPRAEDTAVYYCARRLHGSSNGYYDDLWGQGTLVTVSSGGGGSGGGGSGGGGSGGGGSDGQMTQSPSSVSASVGDRVTITCQASQSIYSYLSWYQQKPGQRPKLLIYKASTLASGVPSRFSGSGSGTDFTLTISSVQPEDFATYYCQQGYTVTNVDKNTFGGGTKVEIKAAEPKSSDKTHTCPPCPAPEAAGGPSVFLFPPKPKDTLMISRTPEVTCVVVSVSHEDPEVKFNWYVDGVEVHNAKTKPREEQYNSTYRVVSVLTVLHQDWLNGKEYKCKVSNKALPAPIEKTISKAKGQPREPQVYVLPPSRDELTKNQVSLLCLVKGFYPSDIAVEWESNGQPENNYLTWPPVLDSDGSFFLYSKLTVDKSRWQQGNVFSCSVMHEALHNHYTQKSLSLSPG
light: DIQMTQSPSSLSASVGDRVTITCRASESVEYYGTSLMQWYQQKPGKAPKLLIYAASNVDSGVPSRFSGSGSGTDFTLTISSLQPEDIATYYCQQSRKVPFTFGGGTKVEIKRTVAAPSVFIFPPSDEQLKSGTASVVCLLNNFYPREAKVQWKVDNALQSGNSQESVTEQDSKDSTYSLSSTLTLSKADYEKHKVYACEVTHQGLSSPVTKSFNRGEC
notes: also called v37638 format, CD28 VL V1035G
With B3, in test [1], the “Fold-change from WT” value came out at 28.4 fold, the dissociation constant (Kd) was 631 nM, the koff is 0.029 s⁻¹ and the on-rate (kon) stood at 67900 M⁻¹ s⁻¹. Also, in test [2], the “IC50 … on SNU 601” value came to 0.81 pM and the “Maximum Killing (%), SNU 601” value worked out at 88.7%. Moreover, in test [3], the “IL-2 maximum cytokine, T cells alone” value amounted to 190 pg/mL; the “IL-2 maximum cytokine, T cells with SNU 601 cells” value is 3400 pg/mL; the “TNFa maximum cytokine, T cells alone” value amounted to 25 pg/mL; the “TNFa maximum cytokine, T cells with SNU 601 cells” value is 409 pg/mL.

B4: v37684 (trispecific antibody, human IgG1, kappa, L234A L235A)
heavy 1: not shown
heavy 2: QVQLVESGGGLVQPGGSLRLSCSVSGIDLSSNPMIWVRQAPGKGLQYIGIIDTDGSTYYADWAKGRFTISKDSTTVYLQINSPRAEDTAVYYCARRLHGSSNGYYDDLWGQGTLVTVSSGGGGSGGGGSGGGGSGGGGSDGQMTQSPSSVSASVGDRVTITCQASQSIYSYLSWYQQKPGQRPKLLIYKASTLASGVPSRFSGSGSGTDFTLTISSVQPEDFATYYCQQGYTVTNVDKNTFGGGTKVEIKAAEPKSSDKTHTCPPCPAPEAAGGPSVFLFPPKPKDTLMISRTPEVTCVVVSVSHEDPEVKFNWYVDGVEVHNAKTKPREEQYNSTYRVVSVLTVLHQDWLNGKEYKCKVSNKALPAPIEKTISKAKGQPREPQVYVLPPSRDELTKNQVSLLCLVKGFYPSDIAVEWESNGQPENNYLTWPPVLDSDGSFFLYSKLTVDKSRWQQGNVFSCSVMHEALHNHYTQKSLSLSPG
light: DIQMTQSPSSLSASVGDRVTITCRASESVEYYVTSLMQWYQQKPGKAPKLLIYAASNVDSGVPSRFSGSGSGTDFTLTISSLQPEDIATYYCQQSRKVPFTFGGGTKVEIKRTVAAPSVFIFPPSDEQLKSGTASVVCLLNNFYPREAKVQWKVDNALQSGNSQESVTEQDSKDSTYSLSSTLTLSKADYEKHKVYACEVTHQGLSSPVTKSFNRGEC
notes: also called v37638 format, CD28 VH G1064S
On to B4, for which, in test [1], the “Fold-change from WT” value turned out to be 6.4 fold, the dissociation constant (Kd) was 143 nM, the off-rate constant (koff) was determined as 0.0113 s⁻¹ and the kon came to 80600 M⁻¹ s⁻¹. Also, in test [2], the “IC50 … on SNU 601” value is 0.34 pM and the “Maximum Killing (%), SNU 601” value worked out at 89.3%. Moreover, in test [3], the “IL-2 maximum cytokine, T cells alone” value was 293 pg/mL; the “IL-2 maximum cytokine, T cells with SNU 601 cells” value worked out at 3430 pg/mL; the “TNFa maximum cytokine, T cells alone” value turned out to be 56.2 pg/mL; the “TNFa maximum cytokine, T cells with SNU 601 cells” value turned out to be 516 pg/mL.

B5: v37686 (trispecific antibody, human IgG1, kappa, L234A L235A)
heavy 1: not shown
heavy 2: QVQLVESGGGLVQPGGSLRLSCSVSGIDLSSNPMIWVRQAPGKGLQYIGIIDTDGSTYYADWAKGRFTISKDSTTVYLQINSPRAEDTAVYYCARRLHGSSNGYYDDLWGQGTLVTVSSGGGGSGGGGSGGGGSGGGGSDGQMTQSPSSVSASVGDRVTITCQASQSIYSYLSWYQQKPGQRPKLLIYKASTLASGVPSRFSGSGSGTDFTLTISSVQPEDFATYYCQQGYTVTNVDKNTFGGGTKVEIKAAEPKSSDKTHTCPPCPAPEAAGGPSVFLFPPKPKDTLMISRTPEVTCVVVSVSHEDPEVKFNWYVDGVEVHNAKTKPREEQYNSTYRVVSVLTVLHQDWLNGKEYKCKVSNKALPAPIEKTISKAKGQPREPQVYVLPPSRDELTKNQVSLLCLVKGFYPSDIAVEWESNGQPENNYLTWPPVLDSDGSFFLYSKLTVDKSRWQQGNVFSCSVMHEALHNHYTQKSLSLSPG
light: DIQMTQSPSSLSASVGDRVTITCRASESVEYYVTSLMQWYQQKPGKAPKLLIYAASNVESGVPSRFSGSGSGTDFTLTISSLQPEDIATYYCQQSRKVPFTFGGGTKVEIKRTVAAPSVFIFPPSDEQLKSGTASVVCLLNNFYPREAKVQWKVDNALQSGNSQESVTEQDSKDSTYSLSSTLTLSKADYEKHKVYACEVTHQGLSSPVTKSFNRGEC
notes: also called v37638 format, CD28 VL D1068E
B5: in test [1], the “Fold-change from WT” value amounted to 1.3 fold, the dissociation constant Kd stood at 28.1 nM, the dissociation rate constant (koff) turned out to be 0.00252 s⁻¹ and the association rate constant (kon) was found to be 89300 M⁻¹ s⁻¹. Further, in test [2], the “IC50 … on SNU 601” value is 0.09 pM and the “Maximum Killing (%), SNU 601” value amounted to 88.5%. Also, in test [3], the “IL-2 maximum cytokine, T cells alone” value was 388 pg/mL; the “IL-2 maximum cytokine, T cells with SNU 601 cells” value was determined as 4180 pg/mL; the “TNFa maximum cytokine, T cells alone” value turned out to be 41 pg/mL; the “TNFa maximum cytokine, T cells with SNU 601 cells” value was found to be 613 pg/mL.
